Experimental data reported in patent publication US6808930B1, “Therapeutic agents” (priority 1997, dated 2004).

Key:
A549 cells [1] = assay: DNA fragmentation by gel electrophoresis and FIGE; type: cell-based, human
Procedure: Remaining cells were analysed for DNA fragmentation.

A549 cells [2] = assay: Nuclear uptake of biotinylated protein, confocal microscopy; type: cell-based, human
Procedure: To detect intracellular protein, the cells were fixed at various times after addition of 0.3 mg/ml of biotinylated MAL for 5 min in phosphate-buffered paraformaldehyde (4%) (B. Sander et al., Immunol. Rev. (1991) 119: 65-92) at room temperature, washed in PBS, and permeabilized with 0.1% saponin in PBS. FITC conjugated streptavidin (diluted 1:100 in 0.1% saponin) was added and the cells were incubated for 30 min at room temperature. The cells were washed twice in PBS-saponin and once in PBS, mounted on a glass slide and analysed in a Bio-Rad 1024 laser scanning confocal equipment (Bio Rad Laboratories, Hemel-Hempstead, UK) attached to a Nikon Diaphot inverted microscope.

L1210 cells = assay: Cell surface binding of 125I-labelled protein, cell associated radioactivity; parameters: species or system murine; conditions: 30 min exposure to 2×10^6 cpm of 125I-labelled protein
Procedure: Cell surface binding of MAL was also quantitated as the cell associated radioactivity during the first 30 min after addition of ^125I-labelled MAL to the cells (FIG. 2B). […]

HRTEC cells = assay: Nuclear uptake of biotinylated protein, confocal microscopy; type: cell-based, human; conditions: biotinylated MAL (1 mg/ml elsewhere in the source)
Procedure: […] Sander et al., Immunol. Rev. (1991) 119: 65-92) at room temperature, washed in PBS, and permeabilized with 0.1% saponin in PBS. FITC conjugated streptavidin (diluted 1:100 in 0.1% saponin) was added and the cells were incubated for 30 min at room temperature. The cells were washed twice in PBS-saponin and once in PBS, mounted on a glass slide and analysed in a Bio-Rad 1024 laser scanning confocal equipment (Bio Rad Laboratories, Hemel-Hempstead, UK) attached to a Nikon Diaphot inverted microscope.

B1: MAL: protein complex from human milk casein containing oligomeric forms of α-lactalbumin; the apoptosis-inducing fraction (protein, UniProt P00709 20-142, looked up)
Alpha-lactalbumin: KQFTKCELSQLLKDIDGYGGIALPELICTMFHTSGYDTQAIVENNESTEYGLFQISNKLWCKSSQVPQSRNICDISCDKFLDDDITDDIMCAKKILDIKGIDYWLAHKALCTEKLEQWLCEKL
modifications: oligomeric form from milk casein
notes: protein complex from human milk casein containing oligomeric forms of α-lactalbumin; the apoptosis-inducing fraction
concentration at which HMW fragmentation was maximal (A549 cells [1]): 1500 µg/mL
concentration at which no chromosomal DNA was seen (A549 cells [1]): 2.5 mg/mL
oligonucleosomal DNA fragmentation (A549 cells [1]): No oligonculeosomal fragmentation was detected
time at which HMW fragmentation was first detected (A549 cells [1]; 1.0 mg/ml): 6 h
incubation time after which cytoplasmic, granular fluorescence was detected (A549 cells [2]; FIG. 3): 3 h
incubation time at which nuclear accumulation was maximal (A549 cells [2]; FIG. 3): 24 h
cytoplasmic staining (A549 cells [2]; biotinylated MAL): granular fluorescence evenly distributed throughout the cell
cell nuclei stained brightly (A549 cells [2]; biotinylated MAL, longer incubation times (time not given)): About 15%
cell surface binding, cell associated radioactivity (L1210 cells): 23 000 cpm
nuclear uptake (HRTEC cells): Nuclear uptake was not observed
